Experimental data as given in US20080274112A1, “Nogo Receptor Antagonists” (priority 2003, published 2008).

Columns and labels:
Nogo66 + sNogoR344-Fc = target: T1, Nogo66 + sNogoR344-Fc (Rattus norvegicus, UniProt Q99M75, A303T/C287S/C43R/E284G/T53A); test: mAb/Fab inhibition of Nogo66 binding to sNogoR344-Fc (ELISA)
T1 construct: amino acid residues 26-344 of rat Nogo receptor-1; made in house
T1 sequence (Q99M75 26-344 C43R/T53A/E284G/C287S/A303T): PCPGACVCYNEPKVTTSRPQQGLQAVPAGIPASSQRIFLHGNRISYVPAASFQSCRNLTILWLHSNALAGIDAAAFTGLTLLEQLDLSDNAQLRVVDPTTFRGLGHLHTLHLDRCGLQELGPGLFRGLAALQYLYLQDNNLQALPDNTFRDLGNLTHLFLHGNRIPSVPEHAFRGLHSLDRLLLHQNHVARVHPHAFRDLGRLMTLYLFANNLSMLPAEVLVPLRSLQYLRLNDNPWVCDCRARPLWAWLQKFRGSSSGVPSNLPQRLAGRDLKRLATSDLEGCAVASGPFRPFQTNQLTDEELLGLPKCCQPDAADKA
Protocol: 0.5 μg of a soluble Nogo receptor-1 fusion protein comprising amino acid residues 26-344 of rat Nogo receptor-1 and the hinge and Fc region of the rat IgG1 molecule (sNogoR344-Fc) produced as described below was immobilized on 250 μg of protein-A- or wheatgerm agglutinin-conjugated SPA beads (Amersham Pharmacia Biotech) for 2 hours at 25° C. SPA beads coupled with Fc-sNogoR-1, anti-Nogo receptor-1 mAb and 1 μl ^125I-Nogo66 (Amersham, 2000 Ci/mmol, 1 nM) in 50 μl of the HEPES-buffered incubation medium (10 mM HEPES, pH 7.4, 0.1% bovine serum albumin, 0.1% ovalbumin, 2 mM MgCl2, 2 mM CaCl2 and protease inhibitors) was added to each sample well. After 16 hours, radioactivity was measured in quadruplicate samples using a TopCount® (Packard). IC50 values were calculated from a curve-fit analysis (FIG. 3) (PRISM, GraphPad Software, NJ). In some experiments, we also used AP-ligand conjugates (e.g. AP-Nogo66) and detected binding by monitoring alkaline phosphatase activity. We also assayed the ability of the mAbs to block binding of the ligands MAG-Fc and AP-OM-gp to Nogo receptor-1.
The calculated IC50 for Nogo66 for 7E11 and 1H2 were 400 nM and 60 nM, respectively. The data from ELISAs monitoring mAb-mediated inhibition of binding of the three ligands to Nogo receptor-1 are summarized in Table 6.
We also performed ELISA binding assays using the Fab-phage 14D5.

[1] = target: T2, rat NgR1 (sNgR310) fragments (Rattus norvegicus, UniProt Q99M75, A303T/C287S/C43R/E284G/T53A); test: Western blot of acid/CNBr fragments of sNgR310 probed with 7E11; type: binding
T2 construct: made in house
T2 sequence (Q99M75 27-310 C43R/T53A/E284G/C287S/A303T): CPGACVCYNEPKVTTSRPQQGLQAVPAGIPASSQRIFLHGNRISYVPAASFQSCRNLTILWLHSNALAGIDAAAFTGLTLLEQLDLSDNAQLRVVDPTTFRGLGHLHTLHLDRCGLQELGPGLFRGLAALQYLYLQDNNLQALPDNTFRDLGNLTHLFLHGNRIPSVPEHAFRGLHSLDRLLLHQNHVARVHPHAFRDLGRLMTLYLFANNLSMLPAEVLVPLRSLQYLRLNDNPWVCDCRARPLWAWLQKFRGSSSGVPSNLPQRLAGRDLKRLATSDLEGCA
Protocol: (§1) A recombinant fragment of the rat NgR1 that contains all 8 LRR domains and the N- and C-terminal caps (sNgR310) was treated with either acid or cyanogen bromide (CNBr) and separated the fragments by gel electrophoresis. Untreated sNgR310 migrates with an apparent molecular weight of 42 kDa. Acid treatment of sNgR310 produced two major cleavage products of 15 kDa (aa 27-aa 122) and 30 kDa (aa 123-aa 310). CNBr treatment generated three fragments, a 33/35 kDa doublet (aa 27-aa 229), which may represent fragments with heterogeneous glycosylation, a 10 kDa product (aa 241-aa 310), and an 11-amino-acid fragment (aa 230-aa 240), which is not retained on the gel. […] Both the 15 kDa acid fragment and the 35 kDa CNBr fragment contained the sequence LDLSDNAQLRVVDPTT (SEQ ID NO: 1), consistent with 7E11 binding to a single epitope on NgR1.

[2] = target: T3, rat NgR1 (sNgR310) fragments (Rattus norvegicus, UniProt Q99M75, C43R/T53A); test: as above; type: binding
T3 construct: made in house
T3 sequence (Q99M75 27-229 C43R/T53A): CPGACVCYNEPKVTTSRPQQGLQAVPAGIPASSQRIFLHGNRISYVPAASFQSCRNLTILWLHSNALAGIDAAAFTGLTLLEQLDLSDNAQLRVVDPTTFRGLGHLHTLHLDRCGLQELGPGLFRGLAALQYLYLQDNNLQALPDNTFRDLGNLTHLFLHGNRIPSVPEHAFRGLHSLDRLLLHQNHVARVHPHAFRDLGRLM
Protocol: as §1

[3] = target: T4, rat NgR1 (sNgR310) fragments (Rattus norvegicus, UniProt Q99M75, A303T/C287S/E284G); test: as above; type: binding
T4 construct: made in house
T4 sequence (Q99M75 123-310 E284G/C287S/A303T): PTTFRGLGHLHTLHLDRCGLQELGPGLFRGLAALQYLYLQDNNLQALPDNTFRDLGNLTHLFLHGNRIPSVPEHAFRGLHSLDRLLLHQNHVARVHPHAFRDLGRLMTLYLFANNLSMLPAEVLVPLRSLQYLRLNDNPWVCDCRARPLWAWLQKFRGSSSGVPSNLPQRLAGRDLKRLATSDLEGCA
Protocol: as §1

[4] = target: T5, rat NgR1 (sNgR310) fragments (Rattus norvegicus, UniProt Q99M75, C43R/T53A); test: as above; type: binding; remark: listed apart in the source
T5 construct: made in house
T5 sequence (Q99M75 27-122 C43R/T53A): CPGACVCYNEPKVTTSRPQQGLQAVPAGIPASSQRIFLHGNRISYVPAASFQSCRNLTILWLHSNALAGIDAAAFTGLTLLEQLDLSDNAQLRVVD
Protocol: as §1

[5] = target: T6, rat NgR1 (sNgR310) fragments (Rattus norvegicus, UniProt Q99M75, A303T/C287S/E284G); test: as above; type: binding; remark: listed apart in the source
T6 construct: made in house
T6 sequence (Q99M75 241-310 E284G/C287S/A303T): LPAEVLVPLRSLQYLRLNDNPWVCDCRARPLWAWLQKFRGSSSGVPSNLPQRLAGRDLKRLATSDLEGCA
Protocol: as §1

B1: 7E11: murine monoclonal anti-Nogo receptor-1 antibody, IgG1 kappa, ATCC PTA-4587; immunogen rat Nogo receptor-1 residues 110-125 (antibody, V domains shown)
VH: VQLQESGAELVMPGASVKMSCKASGYTFTDYWMHWVKQRPGQGLEWIGAIDPSDSYSSYNQNFKGKATLTVDGSSSTAYMQLSSLTSEDSAVYYCARRITEAGAWFAYWGQGTTVT
VL: DVVMTQTPLSLPVSLGDQASISCRSSQSLVHSNGNTYLHWYLQKPGQSPKLLIYKVSNRFSGVPDRFSGSGSGTDFTLKISRVDAEDLGVYFCSQSTHVPFTFGGGTKLEIKRADAAPTVSISHH
Which “inhibition of binding of Nogo66 to sNogoR344-Fc” value (Nogo66 + sNogoR344-Fc) does the source give for B1 here?
Its value is “inhibited binding”.

What about the EC50 (Nogo66 + sNogoR344-Fc; curve-fit analysis) of the same molecule?
Its EC50 is 1700 nM.

What about the “7E11 binding to intact rat NgR1 (aa 27-aa 310)” value [1] of the same molecule?
Its value is “bound”.

And the “7E11 binding to 35 kDa CNBr fragment (aa 27-aa 229)” value [2]?
Its value is “bound”.

And the “7E11 binding to 30 kD acid fragment (aa 123-aa 310)” value [3]?
The value was “did not bind”.

And the “7E11 binding to 15 kDa acid fragment (aa 27-aa 122)” value [4]?
The value was “bound”.

What about the “7E11 binding to 10 kDa CNBr fragment (aa 241-aa 310)” value [5] of the same molecule?
Its value is “did not bind”.
